Experimental findings from publication PMC7418079 are described below.

For this test, the target named is Enterovirus D68 virion, B1 clade isolate US/MO/14–18947 (Enterovirus D68).

B1: mAb EV68–159 (antibody, V domains shown)
VH: EVQLVESGGGLVKPGGLRLSCAASGFTFSTYIMTWVRQAPGRGLEWVSSISTSSVYTFYADSLKGRFTISRDNAKNSVYLQMNSLRADDTAVYYCAREEGFRAYNLYWGQGTLVTVSS
VL: QSVLTQPPSASGTPGQRVTISCSGSSSNIEYNYVYWYQKFPGTAPKLLIYKNNQRPSGVPDRFSGSKSGTSASLAISGLRSEDEGDYYCAAWDDILSGVVFGGGTKLTVL
As to B1, the IC50 of neutralisation of a B1 clade EV-D68 isolate, CCID50 assay on RD cells was 0.32 ng/mL.
